# From paper PMC8586334
# Tests used:
# [1] = target: S. cerevisiae RPA-SSL heterotrimer (Rfa1-F11S, I14S, F15L; Rfa2; Rfa3) (S. cerevisiae) (UniProt P22336)
# [2] = target: S. cerevisiae replication protein A (RPA), wild type heterotrimer (Rfa1, Rfa2, Rfa3) (S. cerevisiae) (UniProt P22336)
# Sequence of S. cerevisiae replication protein A (RPA), wild type heterotrimer (Rfa1, Rfa2, Rfa3) (S. cerevisiae) (P22336 whole entry, chain 1 of 3): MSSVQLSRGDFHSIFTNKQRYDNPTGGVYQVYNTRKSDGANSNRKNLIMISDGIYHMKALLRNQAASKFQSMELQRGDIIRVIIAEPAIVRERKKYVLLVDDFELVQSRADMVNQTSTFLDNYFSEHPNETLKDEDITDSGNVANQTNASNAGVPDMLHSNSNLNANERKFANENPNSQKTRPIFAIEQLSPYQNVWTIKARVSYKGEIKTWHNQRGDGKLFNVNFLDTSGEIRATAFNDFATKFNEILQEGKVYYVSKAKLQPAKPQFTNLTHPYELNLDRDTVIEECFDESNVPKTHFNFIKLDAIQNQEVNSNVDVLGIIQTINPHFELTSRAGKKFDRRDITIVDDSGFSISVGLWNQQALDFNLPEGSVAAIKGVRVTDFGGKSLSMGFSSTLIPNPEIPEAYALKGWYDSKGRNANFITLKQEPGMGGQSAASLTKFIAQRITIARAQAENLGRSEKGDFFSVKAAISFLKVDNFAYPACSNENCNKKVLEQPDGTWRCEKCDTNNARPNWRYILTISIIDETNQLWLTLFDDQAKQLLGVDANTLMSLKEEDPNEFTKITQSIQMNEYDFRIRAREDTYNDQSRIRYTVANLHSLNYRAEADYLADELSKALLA
# Sequence of S. cerevisiae replication protein A (RPA), wild type heterotrimer (Rfa1, Rfa2, Rfa3) (S. cerevisiae) (P26754 whole entry, chain 2 of 3, further chain): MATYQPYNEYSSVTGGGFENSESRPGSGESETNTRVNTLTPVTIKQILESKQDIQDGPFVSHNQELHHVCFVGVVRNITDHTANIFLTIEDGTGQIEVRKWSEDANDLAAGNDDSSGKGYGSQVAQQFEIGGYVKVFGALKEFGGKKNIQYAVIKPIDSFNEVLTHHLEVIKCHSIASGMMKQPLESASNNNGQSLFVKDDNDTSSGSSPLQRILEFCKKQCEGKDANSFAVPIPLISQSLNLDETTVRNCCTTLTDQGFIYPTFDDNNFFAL
# Sequence of S. cerevisiae replication protein A (RPA), wild type heterotrimer (Rfa1, Rfa2, Rfa3) (S. cerevisiae) (P26755 whole entry, chain 3 of 3, further chain): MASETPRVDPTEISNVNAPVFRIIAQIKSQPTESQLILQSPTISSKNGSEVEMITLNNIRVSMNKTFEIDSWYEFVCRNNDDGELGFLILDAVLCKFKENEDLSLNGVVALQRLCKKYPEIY
# Sequence of S. cerevisiae RPA-SSL heterotrimer (Rfa1-F11S, I14S, F15L; Rfa2; Rfa3) (S. cerevisiae) (P22336 whole entry F11S/I14S/F15L, chain 1 of 3): as the sequence (P22336 whole entry, chain 1 of 3) above, with F11S, I14S, F15L counted along it
# Sequence of S. cerevisiae RPA-SSL heterotrimer (Rfa1-F11S, I14S, F15L; Rfa2; Rfa3) (S. cerevisiae) (P26754 whole entry, chain 2 of 3, further chain): as the sequence (P26754 whole entry, chain 2 of 3, further chain) above
# Sequence of S. cerevisiae RPA-SSL heterotrimer (Rfa1-F11S, I14S, F15L; Rfa2; Rfa3) (S. cerevisiae) (P26755 whole entry, chain 3 of 3, further chain): as the sequence (P26755 whole entry, chain 3 of 3, further chain) above
substance,measurement,setting,value
S. cerevisiae Dna2-E675A (nuclease-dead) (from UniProt P38859 1-1522) (enzyme),"ATPase activity (apparent kcat) of Dna2-E675A with ssDNA, stimulation by the RPA variant (48 nM)",[1],2 fold
same,"ATPase activity (apparent kcat) of Dna2-E675A with ssDNA, stimulation by the RPA variant (48 nM)",[2],2 fold
